From patent US20190040368 come the findings set out here.

This series addresses T1, recombinant human iduronate-2 sulfatase (rhIDS).
T1 chain: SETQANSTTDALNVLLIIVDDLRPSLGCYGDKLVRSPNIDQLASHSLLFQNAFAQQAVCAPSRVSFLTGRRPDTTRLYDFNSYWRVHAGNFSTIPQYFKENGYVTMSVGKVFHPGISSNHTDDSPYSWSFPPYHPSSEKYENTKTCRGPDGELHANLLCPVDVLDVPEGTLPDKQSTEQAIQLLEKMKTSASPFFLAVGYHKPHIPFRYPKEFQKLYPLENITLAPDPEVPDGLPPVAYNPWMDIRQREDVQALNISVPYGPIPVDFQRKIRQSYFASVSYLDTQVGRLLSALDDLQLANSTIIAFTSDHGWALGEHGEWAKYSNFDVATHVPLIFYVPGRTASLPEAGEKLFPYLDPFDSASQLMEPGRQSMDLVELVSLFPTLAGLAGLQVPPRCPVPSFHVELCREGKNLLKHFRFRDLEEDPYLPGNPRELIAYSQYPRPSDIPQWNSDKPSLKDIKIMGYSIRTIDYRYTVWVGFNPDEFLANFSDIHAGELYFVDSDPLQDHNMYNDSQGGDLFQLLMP

B1: Chimeric Lip2pre-BtFGE-HpFGE-6xHis-HDEL fusion construct (protein)
chain: MKLSTILFTACATLAAAAGGEEAGPEAGAPSLVGSCGCGNPQRPGAQGSSAAAHRYSREANAPGSVPGGRPSPPTKMVPIPAGVFTMGTDKAKIYLDGESPSRLVTLDPYYFDVYEVSNSEFELFVNTTSYITEAEKFGDSFVLEARISEEVKKDISQVVAAAPWWLPVKGAEWRHPEGPDSSISSRMDHPVTHISWNDATAYCQWAGKRLPTEAEWENAARGGLNNRLFPWGNKLMPKDHHRVNIWQGEFPKVNTAEDGYEGTCPVTAFEPNGYGLYNTVGNAWEWVADWWTTVHSPESQNNPVGPDEGTDKVKKGGSYMCHISYCYRYRCEARSQNSPDSSACNLGFRCAATNLPEDIPCSNCNDSTPHHHHHHHDEL
Regarding B1, the % active rhIDS (4MU activity against ELISA); 1 copy rhIDS, 2 copy ChFGE (POX/Hp4d)-20° C. was determined as 0% and the % active rhIDS (4MU activity against ELISA); 1 copy rhIDS, 2 copy ChFGE (POX/Hp4d)-28° C. was determined as 0%.

B2: Human FGE fusion protein (Lip2pre-hFGE-HDEL) (protein)
chain: SQEAGTGAGAGSLAGSCGCGTPQRPGAHGSSAAAHRYSREANAPGPVPGERQLAHSKMVPIPAGVFTMGTDDPQIKQDGEAPARRVTIDAFYMDAYEVSNTEFEKFVNSTGYLTEAEKFGDSFVFEGMLSEQVKTNIQQAVAAAPWWLPVKGANWRHPEGPDSTILHRPDHPVLHVSWNDAVAYCTWAGKRLPTEAEWEYSCRGGLHNRLFPWGNKLQPKGQHYANIWQGEFPVTNTGEDGFQGTAPVDAFPPNGYGLYNIVGNAWEWTSDWWTVHHSVEETLNPKGPPSGKDRVKKGGSYMCHRSYCYRYRCAARSQNTPDSSASNLGFRCAADRLPTMDHDEL
B2: the “active rhIDS (4MU fluorogenic activity assay against sandwich ELISA), co-expression in Y. lipolytica” value was “All Y. lipolytica strains co-expressing rFGE with rhIDS resulted in the expression of active rhIDS”.

B3: Lip2pre-6xHis-BtFGE-WBP1 fusion construct (protein)
chain: MKLSTILFTACATLAAAHHHHHHAGGEEAGPEAGAPSLVGSCGCGNPQRPGAQGSSAAAHRYSREANAPGSVPGGRPSPPTKMVPIPAGVFTMGTDDPQIKQDGEAPARRVAIDAFYMDAYEVSNAEFEKFVNSTGYLTEAEKFGDSFVFEGMLSEQVKSDIQQAVAAAPWWLPVKGANWRHPEGPDSTVLHRPDHPVLHVSWNDAVAYCTWAGKRLPTEAEWEYSCRGGLQNRLFPWGNKLQPKGQHYANIWQGEFPVTNTGEDGFRGTAPVDAFPPNGYGLYNIVGNAWEWTSDWWTVHHSAEETINPKGPPSGKDRVKKGGSYMCHKSYCYRYRCAARSQNTPDSSASNLGFRCAADHLPTTGADHLPTTGFTMLNPYYRLTLEQTGTTNFSAIYSTTFKIPDQHGVFTFNLDYKRPGYTFIEEKTRATIRHTANDEWPRSWEITNSWVYLTSAVMVVIAWFLFVVFYLFVGKADKEAVHKQ
Consider B3, for which the % active rhIDS (4MU activity against ELISA); 1 copy rhIDS, 2 copy BtFGE-WBPI (POX/Hp4d) stood at 124%.

B4: Hemicentrotus pulcherrimus FGE fusion protein (Lip2pre-HpFGE-6HIS-HDEL) (protein)
chain: ENEDINQNISPTQSHTTATTEEELAEARGEEIDSDPTSEGSGAGEGCGCGSSALNRNHDEDALGLALEENLHDHVQEGAALKYSREANDPISMDHPEANVGAFPRTNQMNFIEGGTFRMGTDKAKIYLDGESPSRLVTLDPYYFDVYEVSNSEFELFVNTTSYITEAEKFGDSFVLEARISEEVKKDISQVVAAAPWWLPVKGAEWRHPEGPDSSISSRMDHPVTHISWNDATAYCQWAGKRLPTEAEWENAARGGLNNRLFPWGNKLMPKDHHRVNIWQGEFPKVNTAEDGYEGTCPVTAFEPNGYGLYNTVGNAWEWVADWWTTVHSPESQNNPVGPDEGTDKVKKGGSYMCHISYCYRYRCEARSQNSPDSSACNLGFRCAATNLPEDIPCSNCNDSTPHHHHHHHDEL
Turning to B4, the % FGly conversion (nano-LC MS); strain T148 (OXYY1801; HpFGE) was determined as 8.1%; the % FGly conversion (nano-LC MS); strain T148 (OXYY1801; HpFGE) (20° C.) came to 68.1%; the % FGly conversion (nano-LC MS); strain T148 (OXYY1801; HpFGE), duplicate was determined as 3.72%; the % FGly conversion-re-analyzed samples; DG29U7#7, OXYY1801; HpFGE came out at 19.2%. For the same protein, the % FGly conversion-re-analyzed samples; DG33U1#6, OXYY1801, HpFGE is 8.3%; the % FGly conversion-re-analyzed samples; DG33U3#6, OXYY1801; HpFGE (20° C.) is 84.5%; the “active rhIDS (4MU fluorogenic activity assay against sandwich ELISA), co-expression in Y. lipolytica” value is given as “All Y. lipolytica strains co-expressing rFGE with rhIDS resulted in the expression of active rhIDS”.
